Test results from US20160244802A1 (UNIVERSITY OF NORTH CAROLINA AT CHAPEL HILL, published 2016).

Target: the molecule itself
Assay: gel filtration (Sephacryl S300) native size against about 150 kDa on SDS-PAGE; inference
Description: The bound proteins were eluted with a 12-cv linear gradient from BD50 to BD450. The flow-through containing the HDM activity was adjusted to 700 mM ammonium sulfate before it was loaded onto a 22 mL Phenyl Sepharose® column (Pharmacia). The bound proteins were eluted with a cv linear gradient from BD700 to BD0. The active fractions, which eluted from 10-BD150-BD50, were combined and concentrated to 5 mL before they were loaded onto a 120 mL Sephacyl® S300 gel filtration column (Pharmacia). The active fractions, which eluted around 300 kDa, were pooled and loaded onto a 1 mL MonoS® column (Pharmacia) equilibrated with BC50. Bound proteins were eluted with a 20-cv linear gradient from BC50 to BC400. The active fractions eluted from BC100 to BC150. […]
To identify the protein(s) responsible for this demethylase activity, we monitored the enzymatic activity through five chromatography columns (Scheme 5). After purification of the 0.3 M P11 fraction through DEAE5PW and Phenyl Sepharose® columns, we determined that the native mass of the enzymatic activity was about 300 kDa as assessed by a Sephacyl® S300 column (FIG. 9A). […] To verify that JMJD1A was responsible for the detected demethylase activity, an antibody against this protein was generated and used to immunoprecipitate JMJD1A from the MonoS® column fractions 21-29. […]

B1: native JHDM2A (JMJD1A) purified from HeLa cells (enzyme)
chain: MVLTLGESWPVLVGRRFLSLSAADGSDGSHDSWDVERVAEWPWLSGTIRAVSHTDVTKKDLKVCVEFDGESWRKRRWIEVYSLLRRAFLVEHNLVLAERKSPEISERIVQWPAITYKPLLDKAGLGSITSVRFLGDQQRVFLSKDLLKPIQDVNSLRLSLTDNQIVSKEFQALIVKHLDESHLLKGDKNLVGSEVKIYSLDPSTQWFSATVINGNPASKTLQVNCEEIPALKIVDPSLIHVEVVHDNLVTCGNSARIGAVKRKSSENNGTLVSKQAKSCSEASPSMCPVQSVPTTVFKEILLGCTAATPPSKDPRQQSTPQAANSPPNLGAKIPQGCHKQSLPEEISSCLNTKSEALRTKPDVCKAGLLSKSSQIGTGDLKILTEPKGSCTQPKTNTDQENRLESVPQALTGLPKECLPTKASSKAELEIANPPELQKHLEHAPSPSDVSNAPEVKAGVNSDSPNNCSGKKVEPSALACRSQNLKESSVKVDNESCCSRSNNKIQNAPSRKSVLTDPAKLKKLQQSGEAFVQDDSCVNIVAQLPKCRECRLDSLRKDKEQQKDSPVFCRFFHFRRLQFNKHGVLRVEGFLTPNKYDNEAIGLWLPLTKNVVGIDLDTAKYILANIGDHFCQMVISEKEAMSTIEPHRQVAWKRAVKGVREMCDVCDTTIFNLHWVCPRCGFGVCVDCYRMKRKNCQQGAAYKTFSWLKCVKSQIHEPENLMPTQIIPGKALYDVGDIVHSVRAKWGIKANCPCSNRQFKLFSKPASKEDLKQTSLAGEKPTLGAVLQQNPSVLEPAAVGGEAASKPAGSMKPACPASTSPLNWLADLTSGNVNKENKEKQPTMPILKNEIKCLPPLPPLSKSSTVLHTFNSTILTPVSNNNSGFLRNLLNSSTGKTENGLKNTPKILDDIFASLVQNKTTSDLSKRPQGLTIKPSILGFDTPHYWLCDNRLLCLQDPNNKSNWNVFRECWKQGQPVMVSGVHHKLNSELWKPESFRKEFGEQEVDLVNCRTNEIITGATVGDFWDGFEDVPNRLKNEKEPMVLKLKDWPPGEDFRDMMPSRFDDLMANIPLPEYTRRDGKLNLASRLPNYFVRPDLGPKMYNAYGLITPEDRKYGTTNLHLDVSDAANVMVYVGIPKGQCEQEEEVLKTIQDGDSDELTIKRFIEGKEKPGALWHIYAAKDTEKIREFLKKVSEEQGQENPADHDPIHDQSWYLDRSLRKRLHQEYGVQGWAIVQFLGDVVFIPAGAPHQVHNLYSCIKVAEDFVSPEHVKHCFWLTQEFRYLSQTHTNHEDKLQVKNVIYHAVKDAVAMLKASESSFGKP
notes: Endogenous protein in MonoS column fractions from HeLa nuclear extract; also called TSGA
binding result: binds
